A protein production outcome set (Wang et al. 2014)

Assay: label from the status in PepcDB records

| Sequence | protein production |
| --- | --- |
| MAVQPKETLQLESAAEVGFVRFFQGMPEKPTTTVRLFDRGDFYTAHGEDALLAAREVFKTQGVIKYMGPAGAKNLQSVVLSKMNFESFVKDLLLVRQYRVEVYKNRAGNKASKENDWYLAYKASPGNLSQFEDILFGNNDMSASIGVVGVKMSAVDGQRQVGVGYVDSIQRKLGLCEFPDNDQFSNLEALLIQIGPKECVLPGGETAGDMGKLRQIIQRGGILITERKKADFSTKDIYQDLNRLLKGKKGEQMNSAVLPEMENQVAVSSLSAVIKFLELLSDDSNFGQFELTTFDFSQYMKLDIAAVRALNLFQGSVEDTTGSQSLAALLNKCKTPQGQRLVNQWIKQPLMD | failed |
| MAVQRVQETQRHSSRVLVPQHAGQFHPVGLRHLSTGPGLHRRSVLRSARVLAKSSIDQPPGQHAQGAVMLRTPFSPRLEGWLLVALAVLLIGAGLGMRQPQNVDEERFLGVALEMLQNGSWFVPHRAAEIYADKPPLFMWTVAFFIWLTGSPNIALYLPGLLSAGTITAVLYDLGNRLWERRIGRYAALLFLATYQTYSILRTGQIDSFLCLWVALGFYGLVRHLLLGPAWGWFYFSCAAMGLGIISKGVGFVPALMLIPYAYAVRKNWHGVVRMPGQAARWALGLLVTLIACCLWLVPMVISVVRDGGPEGFAYLHEILLHQTANRYASAWDHREPFWYFLVNVIPQYWLPLVFALPWLIPAWRRQLSKQDGRVLVLLGWVLLVLLFFSLSSGKRKLYIFPALPGLVLVAAPLVPWLLRRWFRERVLARRIVPTIVVVWLALWFARGFIEPVVEGENPHKELMEQAAEVTHGADLVLVNWREGHWLYARQPMVHFGFAHALANERAASWLREHPGTFALVPGELLANCFLPEKAHPLGKTSRADWFLVDAQADNGVCRPERPPEVYRFAWKQNAQ | failed |
| MAVRQVTVGYSDGTHKTMPVRCDQTVLDAAEEHGVAIVNECQSGICGTCVATCTAGRYQMGRTEGLSDVERAARKILTCQTFVTSDCRIELQYPVDDNAALLVTGDGVVTAVELVSPSTAILRVDTSGMAGALRYRAGQFAQLQVPGTNVWRNYSYAHPADGRGECEFIIRLLPDGVMSNYLRDRAQPGDHIALRCSKGSFYLRPIVRPVILVAGGTGLSAILAMAQSLDADVAHPVYLLYGVERTEDLCKLDELTELRRRVGRLEVHVVVARPDPDWDGRTGLVTDLLDERMLASGDADVYLCGPVAMVDAARTWLDHNGFHRVGLYYEKFVASGAARRRTPARLDYAGVDIAEVCRRGRGTAVVIGGSIAGIAAAKMLSETFDRVIVLEKDGPHRRREGRPGAAQGWHLHHLLTAGQIELERIFPGIVDDMVREGAFKVDMAAQYRIRLGGTWKKPGTSDIEIVCAGRPLLEWCVRRRLDDEPRIDFRYESEVADLAFDRANNAIVGVAVDNGDADGGDGLQVVPAEFVVDASGKNTRVPEFLERLGVGAPEAEQDIINCFYSTMQHRVPPERRWQDKVMVICYAYRPFEDTYAAQYYTDSSRTILSTSLVAYNCYSPPRTAREFRAFADLMPSPVIGENIDGLEPASPIYNFRYPNMLRLRYEKKRNLPRALLAVGDAYTSADPVSGLGMSLALKEVREMQALLAKYGAGHRDLPRRYYRAIAKMADTAWFVIREQNLRFDWMKDVDKKRPFYFGVLTWYMDRVLELVHDDLDAYREFLAVVHLVKPPSALMRPRIASRVLGKWARTRLSGQKTLIARNYENHPIPAEPADQLVNA | failed |
| MAVVSHGGFRAAARALDVSQGGLTKSIAALEQEYGVDLIERSAKGVLLTPKGAAFVPLARAIVEEAERAEGWLRAQSGELSTSVSLGVSIEPSIRLAPAVLRDFRKALPDTSVHLTQGVALDLLGALRENRIELAVIRLPRNFDSSDLKVQRLYQSEPVIVGRAGHPGAGAASLRELVKYDWVVVGDTSRQGAMNDDSIWELFDREGLGRPRFAAVCNSLLSIVAMLMESDALARVPRALLDHSLARRNLIPIPVAEPPVPYWIATVHKASRRLSPEAQTLNAMLSSYARISGALSPERRPGEP | failed |
| MAWMFLLLAAAFEVTFAMGMKYAEGFTRPWPSLLTVVAAVGGIYFLTLAMRELPVSVAYPIWTAIGSLGTVLLGCLLLGESLTAVKLVSVGLIVAGVAGLK | failed |
| MAWRVGIAPLMTPSTPLWPGREPVYRSAALSSMEPGRPRGQQGTELGMPAGAPLRRGIGGGPGLDVRRRDLGAVAAAHQHAILGPAQVGDAHGEPDPDRGQRDGEGERGDVGEHAVAEIVRLGARLLVARQVERLGRAAHRLHGAVAPVDRRGGGGARPELEHPVLLIRAYGPLGFHGARITPKQRFLIAYVVNALQKIFSTRTCIALLHDLFAKARDSGRHAGVRMRGVALQNSHGTCRARSREHRLVISLCAPNAFCRRKAHGIIMEPGPPVATNNVRGSSTMTTNAREPRVHPVPILSLRPTQMTVGMREVKEKRKRWREHDSKKQADLLGKHMIPVVYGPDKRYYVIDHHHLGRALHDEGVKEVLVTVVGDLRMVEREAFWGVMDNKRWVYPYDSKGERRPFRDLPKSVADLRDDPFRSLAGELRRLGGFAKDTTPFSEFLWADYLRRKLSRKAVDANFDKALEKALSAAKSKDAIYLPGWCGPADDD | failed |
| MAWYEGAFFYQIFPDRFFRAGPPGRPAPAGPFEPWEAPPTLRGFKGGTLWGVAEKLPYLLDLGVEAIYLNPVFASTANHRYHTVDYFQVDPILGGNEALRHLLEVAHAHGVRVILDGVFNHTGRGFFAFQHLMENGEQSPYRDWYHVKGFPLKAYTAHPNYEAWWGNPELPKLKVETPAVREYLLAVAEHWIRFGVDGWRLDVPNEIPDPTFWREFRQRVKGANPEAYIVGEIWEEADFWLQGDMFDAVMNYPLARAVLGFVGGEALDRDLAAQTGLGRIEPLQALAFSHRLEDLFGRYRPEVVRAQMNLLTSHDTPRLLSLMRGSVERARLALALLFLLPGNPTVYYGEEVGMAGGKDPENRGGMVWEEARWQKDLRETVKRLARLRKEHPALRTAPYLRIYAQDGHLAFARGPYLAVVNASPHPFRQDFPLHGVFPRGGRAVDLLSGEVCTPQGGRLCGPVLPPFSLALWREA | not failed |
| MAYEERRSSILDSFSLSPLPYPVLLILAVASVFLLSSWYFSLEEAAESAEEQINFALLLIPLFLIVLVRWLSSMENPDALLGMFSSSRRTTYVSPGAGGDGGSSPWGVAALIVLLLVLLQYQSSFLEMWSG | failed |
| MAYLEVLRYLYHKRPMGKVKPGLERISMLLSKLGNPHLEYKTIHIGGTNGKGSVANMVSNILVSQGYRVGSYYSPHLSTFRERIRLNEEYISEEDVVKIYETMEPILNELDKEEIFSPSFFEVVTAMAFLYFAEKNVDIAVLEVGLGGRLDATNVVFPLCSTIVTVDRDHEKTLGYTIEQIAWEKSGIIKERVPLVTGERKREALKVMEDVARKKSSRMYVIDKDFSVKVKSLKLHENRFDYCGENTFEDLVLTMNGPHQIENAGVALKTLEATGLPLSEKAIREGLKNAKNLGRFEILEKNGKMYILDGAHNPHGAESLVRSLKLYFNGEPLSLVIGILDDKNREDILRKYTGIFERVIVTRVPSPRMKDMNSLVDMAKKFFKNVEVIEDPLEAIESTERATVVTGSLFLVGYVREFLTTGKINEEWKL | not failed |
| MAYREKDTKKWTAQWFETNVMGEKKKRRKRGFETKREALEFERSKKLSNERSMDMKLSDFIEIYFSDKQNDLKDRTIKNKRYMMQQHIVPYFGNQMMSEIKASQIIQWQNEIQKKGYSDSYLRMIQNQLTSLFTHAAKIYDLPVNPCKKVKRMGNSDSRSLNFWTLDEYKQFIQTMEPGTRYYLMFEMLFWTGCRIGELLAITKADINFEKNQLSINKTYYRTGMQDIITEPKTKQSFRTIEIPEFLKEEIKEFVDGHYGMPDTERLFPVVQEAVQHKMKRQIELAGVKKIRVHDIRHSHVAYLIEKGVEPLLIRDRLGHKDIRITLNTYGHLYPNQQRKIANLLDNENGNAVTGLGEERDEC | failed |
| MAYSLSPKKAGLPREVLKWLQSLDLSFFPKNVRRDFSNGYLVAEVFSWYFPRDFQMHSFDNGTSLAAKQSNWSQIEKFFVKQNISLVKEMIDGTIHCKPGAAELLVQEIYTILTNRSIQAIQRVEQGFTDKPYQDQLPMVARATASVSIKSNLSLTEVKAEPNIITNQRKVLAIIHRHLEQRKEERVQDPKRFNVKPTLGEQAVRLLAHQHEPNLQMNTSQAAC | failed |
| MAYSPSLNDIKSILNKYTSKDYELKCENRYDGKLELWLKGVFEEIVKTPGTRYVTHKQLDEKLKNFVTKTEFKEFQTVVMESFAVQNQNIDAQGEQIKELQVEQKAQGKTLQLILEALQGINKRLDNLESK | failed |
| MCAADHSREQVMRIGEVASRAGVSVRSVRYYEDQGLLASTRSAGGQRQYTEHEVERVQFLQRLYAAGLSSRTIAELLPCVDAPSEVHSDAALERMAQERDRLTEHIADLVRTRDALNALMTAAREYRDAQFA | failed |
